Test system: MS2 coat protein
Experiment: apparent KD of MS2 coat protein; designed switch direction (-1 OFF switch, 1 ON switch): -1; higher = weaker reporter binding
Method in brief: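 Designed RNA switches with common flanks were made on Illumina chips by stalled E. coli RNA polymerase. Titration with SNAP-549-labelled MS2 coat protein doubled from 0.7 or 1.5 nM up to 3 µM. Apparent KD is each design's median over clusters after curve-fitting normalised fluorescence.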

[1] = Eterna round: R95, input ligand: microRNA oligo, concentration not stated
[2] = Eterna round: R95, input ligand: FMN 200 uM
[3] = Eterna round: R95, input ligand: none
[4] = input ligand: microRNA oligo, concentration not stated

| Sequence | apparent KD of MS2 coat protein [1] | apparent KD of MS2 coat protein [2] | apparent KD of MS2 coat protein [3] | apparent KD of MS2 coat protein (input ligand: FMN 200 uM) | apparent KD of MS2 coat protein (input ligand: none) | apparent KD of MS2 coat protein [4] |
| --- | --- | --- | --- | --- | --- | --- |
| GGUUAAUGCAAGGAUAUGCUAUUAUUUUAUUUUGCAGAAGGUGCAACAUGAGGAUCACCCAUGUUGGAGGGUUU [JR_E6_Sub025] (puzzle: Exclusion 6) | 18.6 nM |  |  |  |  |  |
| GGUUGGCGAGGAUAUACAUGAGGAUCACCCAUGUGAGAGAAAAAAGUGAGGAAGACAAGUAGAAGGCGCUGACG [salish99_ex3_r3_035] (puzzle: Exclusion 3) | 237 nM | 8540 nM | 125 nM |  |  |  |
| GGUUGGCGAGGAUAUACAUGAGGAUCACCCAUGUGAGAGAAAGAAGUGAGAACGAAAAGUAGAAGGCGCUGACG [salish99_ex3_r3_058] (puzzle: Exclusion 3) | 65.8 nM | 48.1 nM | 66.1 nM |  |  |  |
| GGUUGGCGAGGAUAUACAUGAGGAUCACCCAUGUGAGAGACAAAAGUGAGGAAGAAAAGUAGAAGGCGCUGACG [salish99_ex3_r3_022] (puzzle: Exclusion 3) | 84.5 nM | 2000 nM | 232 nM |  |  |  |
| GGUUGGCGAGGAUAUACAUGAGGAUCACCCAUGUGAGAGAGAAAAGUGAGGAAGAAAAGUAGAAGGCGCUGACG [salish99_ex3_r3_003] (puzzle: Exclusion 3) | 48 nM | 97.3 nM | 36.1 nM |  |  |  |
| GGUUGGUGAGGAUAUACAUGAGGAUCACCCAUGUGAGAGAAAGAAGUGAGGAAGAAAAGUAGAAGGCGCUGACG [salish99_ex3_r3_054] (puzzle: Exclusion 3) | 40.4 nM | 87.1 nM | 54.2 nM |  |  |  |
| GUAAACGAAGAGGAUAUUUGAUAUCAAAGCUUCAAAGAAGGCUUCACAUGAGGAUCACCCAUGUGAUCUUCAAG [Mat - Exclusion 6 - JL Mod - D17] (Eterna round: R97, puzzle: Exclusion 6) |  |  |  | 404 nM | 28.4 nM |  |
| GUAAAGUGAGGAUAUGGUAAUUUAAUUAUUAAUUAAUUAAUCCAGAAGGCACAUGAGGAUCACCCAUGUAAAGG [Mat - Exclusion 4 - D93] (puzzle: Exclusion 4) | 34.6 nM |  |  |  |  |  |
| GUAAUUAAUGUAGGAUAUGCAAGGCGAAACAUGAGAGAAGGCCAUGUGGAUCACCCAUGUAAUGCGGUCUGCGUACAGAUCGCU [salish99_ExNG1_r4_003] (Eterna round: R96, puzzle: Exclusion NG 1) |  |  |  | 38 nM | 65.5 nM | 16.1 nM |
| GUAAUUAAUGUAGGAUAUGCAAGGCGAACCUAAGCAGAAGGACAUGUGGAUCACCCAUGUAAACAUGAGGAUCACCCAUGUGCU [salish99_ExNG1_r4_006] (Eterna round: R96, puzzle: Exclusion NG 1) |  |  |  | 1320 nM | 4270 nM | 1340 nM |
| GUAAUUAUAUAGGAUAUCGAAAGUAUAAUUUAACGAGAAGGAUGAACAUGAGGAUCACCCAUGUGGUAUCAUGG [JL-ex6-3.08] (puzzle: Exclusion 6) | 321 nM | 66.4 nM | 219 nM |  |  |  |
| GUACGAGCCAAACACGUGGACAUGAGGAUCACCCAUGUGUCACCGGAUCCAUAGAGCUCGUCUUACCGACAAAAGCU [Eternabot (Original) Solution 17] (Eterna round: R97, puzzle: Sensor, turn-off variant 1) |  |  |  | 28.9 nM | 31.6 nM |  |
| GUACGGUAAGGAUAUUGGAGGCCAAAGCACGAGUAGUACUCUAAGAAGGUACAUGAGGAUCACCCAUGUACGAG [Eternabot (L2) Solution 63] (Eterna round: R97, puzzle: Exclusion 4) |  |  |  | 18.8 nM | 16.9 nM |  |
| GUAGAGUCAGGAUAUACGAGAUCGAAAGAUCGGCGGUCCAUACAUGAGGAUCACCCAUGUAGAAGGGACUCUAC [Omei mod 5 to Eli's favorate candidate (ch.parushev)] (Eterna round: R97, puzzle: Exclusion 2) |  |  |  | 115 nM | 18.3 nM |  |
| GUAGAGUGAGGAUAUACGAGAUCGAAAGAUCGGCGAUCCAAACAUGAGGAUCACCCAUGUAGAAGGCACUCUAC [Eli x2 4.006] (Eterna round: R97, puzzle: Exclusion 2) |  |  |  | 202 nM | 140 nM |  |
| GUAGAUCGAGUUAGGAUAUGAUUACUAUCCGAAAAUCAGAAGGAACUUGAGGAUCACCCAAGUAUAGAUGAUAU [JR_BMEx4_Sub053] (Eterna round: R97, puzzle: Brourd's mod of Exclusion 4) |  |  |  | 21.7 nM | 16.9 nM |  |

| Sequence | apparent KD of MS2 coat protein [1] | apparent KD of MS2 coat protein [2] | apparent KD of MS2 coat protein [3] | apparent KD of MS2 coat protein (input ligand: FMN 200 uM) | apparent KD of MS2 coat protein (input ligand: none) | apparent KD of MS2 coat protein [4] |
| --- | --- | --- | --- | --- | --- | --- |
| GUAUAAUGAGUCAGGAUAUUGAUGACGCUAGGACACAAGAAGGGACAUGAGGAUCACCCAUGUUAUUAUGCGGU [Eternabot (L2) Solution 29] (Eterna round: R97, puzzle: Brourd's mod of Exclusion 4) |  |  |  | 88.2 nM | 63.9 nM |  |
| GUAUAGUGAGGAUAUAUAUGCAGUAAACCUCAAAAGAUCGAACUUGAGGAUCACCCAAGUAGAAGGCGCGAGAU [JR_Ex2_Sub052] (Eterna round: R97, puzzle: Exclusion 2) |  |  |  | 24.5 nM | 30.4 nM |  |
| GUAUAUAGUGUGAGGAUAUGCUGGUCCUUGGAUCAGCAGAAGGCACAUGAGGAUCACCCAUGUAGUUAAAUAUA [Mat - Exclusion 4 - JL Mod - D20] (puzzle: Brourd's mod of Exclusion 4) | 30.1 nM |  |  |  |  |  |
| GUAUAUAGUGUGAGGAUAUGCUGGUCCUUGGAUCAGCAGAAGGCACAUGAGGAUCACCCAUGUAGUUUAUUUUG [Mat - Exclusion 4 - JL Mod - D7] (puzzle: Brourd's mod of Exclusion 4) | 16.2 nM |  |  |  |  |  |
| GUAUCGUGAGGAUAUCUAGACUGACUUAGUACAUGUCAGCUGGAGAAGGCACAUGAGGAUCACCCAUGUGAUUA (puzzle: Exclusion 4) | 22.2 nM |  |  |  |  |  |
| GUCAGCUCGUCAGGAUAUACAUCACUGCUUCGGCAGUGUAUUAAGAUCACAUGAGGAUCACCCAUGUAGAAGGGACGAGCUGAC [ENG2/2-B1] (Eterna round: R96, puzzle: Exclusion NG 2) |  |  |  | 269 nM | 21.9 nM | 21.2 nM |
| GUCAGCUCGUCAGGAUAUAUAUUAACAUGAGGAUCACCCAUGUAAGAUCAGCUUCGGCAGUUAAUAUAGAAGGGACGAGCUGAC [ENG2/14-B1] (Eterna round: R96, puzzle: Exclusion NG 2) |  |  |  | 181 nM | 153 nM | 154 nM |
| GUCAGCUCGUGAGGAUAUACAUGAUAGAUCGAUUAAUUAAUUAAUUUAACAUGAGGAUCACCCAUGUAGAAGGCACGAGCUGAC [ENG2/1-A1] (Eterna round: R96, puzzle: Exclusion NG 2) |  |  |  |  |  | 30.9 nM |
| GUCAGCUCGUGAGGAUAUACAUGAUAGAUCGAUUAAUUAAUUAAUUUAACAUGAGGAUCACCCAUGUAGAAGGCACGAGCUGAU [ENG2/1-A2] (Eterna round: R96, puzzle: Exclusion NG 2) |  |  |  |  |  | 35.8 nM |
| GUCAGCUCGUGAGGAUAUGAACAUGAGGAUCACCCAUGUAAGAUCAAGCUGCUUCGGCAGCAAGUUCAGAAGGUACGAGCUGAC [ENG2/10-C1] (Eterna round: R96, puzzle: Exclusion NG 2) |  |  |  | 150 nM | 130 nM | 77.5 nM |
| GUCAGCUCGUGAGGAUAUGCACAUGAGGAUCACCCAUGUAAGAUCAAGCUGCUUCGGCAGCAAGUGCAGAAGGCACGAGCUGAC [ENG2/9-A1] (Eterna round: R96, puzzle: Exclusion NG 2) |  |  |  | 137 nM | 303 nM | 138 nM |
| GUCAGCUCGUGAGGAUAUGUAUAUACAUGAGGAUCACCCAUGUUAGAUCUGCUUCGGCUGUAUAUACAGAAGGCACGAGCUGAC [ENG2/16-A1] (Eterna round: R96, puzzle: Exclusion NG 2) |  |  |  | 504 nM | 308 nM | 382 nM |
| GUCAUCACACAUGGGAUCAACAUGAGGAUCACCCAUGUUGCCAAGCCGUUUGCACGUCUUAUCAUACGUUUUUCGAU [Mod-Jxj] (Eterna round: R97, puzzle: Sensor, turn-off variant 1) |  |  |  | 90.2 nM | 99.8 nM |  |
| GUCCGGCAUGUAGGAUAUGGAUCCGAUUAGGAUUUAGAAGGACAUGAGGAUCACCCAUGUGCAUUUAAUUAGUCAUUACCGGAU [EXclNG1-LROPPY05] (Eterna round: R96, puzzle: Exclusion NG 1) |  |  |  | 17.4 nM | 17.9 nM | 13.6 nM |
| GUCCUCAUGGCGCCUAAACACAUGAGGAUCACCCAUGUACAGGCUUUUUGCCGUCUUAUAAUAAAACCGAGGAUGCG [Reanaor] (puzzle: Sensor v3, turn-off variant 1) | 157 nM | 103 nM | 148 nM |  |  |  |
